{"source": "patent US20080286228A1", "about": "(published 2008)", "binders": {"B1": {"name": "IPQSLDSWWTSLRVRRYSFKPMPLaR (peptide)", "peptide": "IPQSLDSWWTSLRVRRYSFKPMPL[dA]R", "notes": "synthetic peptide; also called RVRR-containing C5a-active construct"}, "B2": {"name": "IPQSLDSWWTSLRRYSFKPMPLaR (peptide)", "peptide": "IPQSLDSWWTSLRRYSFKPMPL[dA]R", "notes": "synthetic peptide; also called double-Arg-linked C5a-active construct"}, "B3": {"name": "C5a C-terminal decapeptide agonist analog YSFKPMPLaR (peptide)", "peptide": "YSFKPMPL[dA]R", "notes": "synthetic peptide; also called C5a agonist"}, "B4": {"name": "natural C5a (ligand, UniProt P01031 678-751, looked up)", "chain": "TLQKKIEEIAAKYKHSVVKKCCYDGACVNNDETCEQRAARISLGPRCIKAFTECCVVASQLRANISHKDMQLGR", "notes": "C5a is a fragment of it"}}, "note": "Non-standard residues stand in square brackets, D forms with d. No end group written: not given here.", "data": [{"target": "T1, C5a receptor expressed on the surface of human PMNs (human, UniProt P21730 1-350)", "T1 construct": "whole, on cells; also called C5aRs; C5aR5", "T1 sequence (looked up)": "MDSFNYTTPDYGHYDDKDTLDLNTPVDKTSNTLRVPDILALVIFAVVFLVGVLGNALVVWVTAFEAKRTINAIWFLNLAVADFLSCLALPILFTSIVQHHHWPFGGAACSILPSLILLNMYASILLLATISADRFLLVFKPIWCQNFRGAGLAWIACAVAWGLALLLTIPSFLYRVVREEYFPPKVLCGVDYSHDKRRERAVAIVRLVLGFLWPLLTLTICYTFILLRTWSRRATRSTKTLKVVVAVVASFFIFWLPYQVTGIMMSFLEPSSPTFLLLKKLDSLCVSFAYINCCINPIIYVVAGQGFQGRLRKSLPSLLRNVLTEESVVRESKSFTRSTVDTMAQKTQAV", "test": "competition with 125I-C5a on intact human PMNs", "units": {"IC50": "µM"}, "method": "Statistical analysis of the values obtained from pharmacologic assays was performed using one-way analysis of variance (ANOVA).", "values": [{"binder": "YSFKPMPL[dA]RRRIPQSLDSWWTSL (synthetic peptide)", "note": "[YSFKPMPLa[…]]", "IC50": 465, "pD2 (-log IC50 (M))": "3.33 -log IC50 (M)"}, {"binder": "B1", "IC50": 0.529, "pD2 (-log IC50 (M))": "6.28 -log IC50 (M)"}, {"binder": "IPQSLDSWWTSLRRYSFKPMPL[dA]RG (synthetic peptide)", "note": "[IPQSLDSWWTSLRRYSFKPMPLaRG]", "IC50": 17, "pD2 (-log IC50 (M))": "4.77 -log IC50 (M)"}, {"binder": "B2", "IC50": 0.416, "pD2 (-log IC50 (M))": "6.38 -log IC50 (M)"}, {"binder": "B3", "pD2 (-log IC50 (M))": "5.63 -log IC50 (M)"}, {"binder": "B4", "IC50": 0.0004, "pD2 (-log IC50 (M))": "9.43 -log IC50 (M)"}, {"binder": "IPQSLDSWWTSLYSFKPMPL[dA]R (synthetic peptide)", "note": "[IPQSLDSWWTSLYSFKPMPLaR]", "IC50": 3.69, "pD2 (-log IC50 (M))": "5.43 -log IC50 (M)"}]}, {"target": "T1, C5a receptor expressed on the surface …", "test": "cell-based or functional assay", "units": {"smooth muscle contraction of human umbilical artery, EC50": "µM"}, "values": [{"binder": "YSFKPMPL[dA]RRRIPQSLDSWWTSL (synthetic peptide)", "note": "[YSFKPMPLa[…]]", "smooth muscle contraction of human umbilical artery, EC50": 39.4, "smooth muscle contraction of human umbilical artery, pD2": "4.41 -log EC50 (M)"}, {"binder": "B1", "smooth muscle contraction of human umbilical artery, EC50": 0.18, "smooth muscle contraction of human umbilical artery, pD2": "6.67 -log EC50 (M)"}, {"binder": "IPQSLDSWWTSLRRYSFKPMPL[dA]RG (synthetic peptide)", "note": "[IPQSLDSWWTSLRRYSFKPMPLaRG]", "smooth muscle contraction of human umbilical artery, EC50": 6.78, "smooth muscle contraction of human umbilical artery, pD2": "5.17 -log EC50 (M)"}, {"binder": "B2", "smooth muscle contraction of human umbilical artery, EC50": 0.161, "smooth muscle contraction of human umbilical artery, pD2": "6.79 -log EC50 (M)"}, {"binder": "B3", "smooth muscle contraction of human umbilical artery, EC50": 0.01, "smooth muscle contraction of human umbilical artery, pD2": "6.99 -log EC50 (M)"}, {"binder": "B4", "smooth muscle contraction of human umbilical artery, EC50": 0.002, "smooth muscle contraction of human umbilical artery, pD2": "8.77 -log EC50 (M)"}, {"binder": "IPQSLDSWWTSLYSFKPMPL[dA]R (synthetic peptide)", "note": "[IPQSLDSWWTSLYSFKPMPLaR]", "smooth muscle contraction of human umbilical artery, EC50": 0.21, "smooth muscle contraction of human umbilical artery, pD2": "6.68 -log EC50 (M)"}]}, {"target": "T1, C5a receptor expressed on the surface …", "test": "cell-based or functional assay", "remark": "another data set of the same source", "units": {"MPO release from human PMNs, EC50": "µM"}, "values": [{"binder": "YSFKPMPL[dA]RRRIPQSLDSWWTSL (synthetic peptide)", "note": "[YSFKPMPLa[…]]", "MPO release from human PMNs, EC50": "> 1000", "MPO release from human PMNs, pD2": "> 3 -log EC50 (M)"}, {"binder": "B1", "MPO release from human PMNs, EC50": 2.15, "MPO release from human PMNs, pD2": "5.61 -log EC50 (M)"}, {"binder": "IPQSLDSWWTSLRRYSFKPMPL[dA]RG (synthetic peptide)", "note": "[IPQSLDSWWTSLRRYSFKPMPLaRG]", "MPO release from human PMNs, EC50": 2.56, "MPO release from human PMNs, pD2": "5.59 -log EC50 (M)"}, {"binder": "B2", "MPO release from human PMNs, EC50": 0.54, "MPO release from human PMNs, pD2": "6.27 -log EC50 (M)"}, {"binder": "B4", "MPO release from human PMNs, EC50": 0.003, "MPO release from human PMNs, pD2": "8.5 -log EC50 (M)"}, {"binder": "IPQSLDSWWTSLYSFKPMPL[dA]R (synthetic peptide)", "note": "[IPQSLDSWWTSLYSFKPMPLaR]", "MPO release from human PMNs, EC50": 1.58, "MPO release from human PMNs, pD2": "5.8 -log EC50 (M)"}]}]}
